Results: the RNAGym collection of RNA variant scans (doi:10.1073/pnas.2313332121)

B1: TPR t1 (parent)
chain: GACCAAUCUGCCCUCAGAGCUCGAGAACAUCUUCGGAUGCAGAGGAGGCAGGCUUCGGUGGCGCGAUAGCGCCAACGUCCUCAACCUCCAAUGCAUCCCACCACAUGAUGAUGCCUGAAGAGCCUUGGUUUUUUG

Variants of: B1
Assay: polymerase ribozyme fitness, log enrichment relative to wild type (log ratio); higher = more active; in vitro selection for triplet polymerase activity
Method in brief: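 Fitness measures genotype enrichment against wild-type enrichment on a logarithmic scale, with inverse-variance-weighted averaging of replicates. The logarithm is base 2, and genotypes were kept only with ≥10 input reads and ≥1 read per output in Illumina sequencing. The sequenced libraries came from one triplicate in vitro selection round, including frozen incubation at −7 °C, of PCR-built, transcribed mutant libraries of each subunit of a heterodimeric triplet polymerase ribozyme.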

Variant | polymerase ribozyme fitness (log ratio)
G42U G47C C49G | -2.84
A43U G61A U92A G93C | -1.44
G42U G47A G69A | -4.71
A43U C76A C85G G120A U130C | -1.34
A43C G44C A118U U133G | -1.11
A43C C53G G61U G128A | -4.58
A43U U92A U106A | -2.69
G42U G60A C101U A121G | 0.281
G42U U54A A91U A121C C124A | 0.144
A43C U59G U78C A111U | -5.7
A43G C53G G69C | -2.9
A43G C53G | -2.54
A43G C56A G57U U59C A84C C86U | -3.81
G42U C101U G113C | -2.52
A43C C85G A90G C98A | -7.04
G44A A66G | -1.89
A43C C53A A95U U109A U130G | -7.32
A43U G60U C123G U132G | 0.532
A43G G69C | -2.38
A43G A118G | -1.54
G42U C73G | -2.39
A43U U129A | -2.81
G42U C72G | -2.53
G42U C72A | -0.339

Variant | polymerase ribozyme fitness (log ratio)
A43G G71A C82A G120U A121C | -3.35
A43U G45U G110U | -3.95
G42U C72G G117U | -4.8
A43U U78G C85U G93A | -3.01
G42U G69U | -0.0944
G42U G69C | -2.39
A43U U87G C102U | -5.04
A43U A118U | -1.23
A43U C88A U109A | -6.37
A43C C70G A111U | -5.68
A43U G69A | -5.69
A43C G61U C64G A121G | -6.23
G42U G44U G45A U54G C89G | -2.57
A43G C70U | -2.76
A43U G47U A74U | -2.98
G42U G71A C86U U96A C97A U116G | -6.66
G42U G60A U87A G113A | -3.78
A43U U59G G110A | -5.07
A43U G58U C62U A74C | -2.24
A43C C62U C72G | -4.05
A43U C53A U129A | -4.05
G42U U109G | -5.53
A43U | -1.2
A43C | -2.17

Variant | polymerase ribozyme fitness (log ratio)
A43G | -1.32
G42U G77A C88A U92C | -3.21
A43G G45U C72G | -2.45
A43U C73U U92G G113A | -2.84
A43U A121G | 1.17
G42U C56U | -1.29
A43G G61U C114A G127C U132A | -3.36
A43U A66C G71U | -5.02
A43U C76A G135U | -3.89
A43C G48C C123A | -1.93
G42U U92A | -2.25
A43C G63A U78C C104A G120C | -6.92
A43C C49U | -3.72
A43C C49A | -3.08
A43C C49G | -3.17
A43U U59A G60U | -1.17
A43C G44U A111G | -1.62
A43U U54A U112A | -0.639
G42U G63A A111G U112G C115A | -6
G42U U125A | -1.61
A43U C49A G51C C56G G63C U106A | -7.03
A43C G45A G48C | -3.39
A43C A50C C86U C89A | -4.9
A43U U92C U112G | -2.71

Variant | polymerase ribozyme fitness (log ratio)
G42U C62A C73U U112C U130G | -3.26
A43G G60U U78C | -2.18
G42U U55A C56G G77C C115A | -1.05
A43C C76U A91C G93C U112C G113U U116C | -6.51
A43G G69C A90C | -2.1
A43U G48U U54C C89U U112A | -0.663
A43C G60U U133G | -2
G42U G77U U106A G120C | -2
A43G C72G | -1.52
A43G C72U | -0.99
A43G G128U | -4.43
A43G G128A | -3.36
G42U C82G C115G | -3.58
A43U C56A C73A U109A | -5.95
G42U U54A G110U U133G | -4.37
A43C C56U C79G | -5.29
A43U A111C | -1.94
G42U G69C C123A | -3.23
A43G C70G G110U | -5.99
A43G G69U C89U | -0.177
A43U U81A C85G C124U | -4.75
A43G G45U U59A A66U | -5.27
A43U C73A C104A G113U | -5.13
G42U U81C C85G U126G | -6.41

Variant | polymerase ribozyme fitness (log ratio)
G42U C56G C73A | -4.4
A43C U129A | -3.98
A43U A66G | -3.64
G42U G71U G127U | -2.72
G42U C56U C115G | -2.13
A43C G93C U130A | -3.38
A43C G63A U78C C88A A91G C94U U130C | -4.78
A43U G51U G71A C79A U112G | -6.57
A43C G61A | -2.52
A43U C123A | -1.02
G42U C94G U96C | -4.23
A43U G69C C115A C124U | -3.09
A43U G71C | -2.56
A43U G47C G113U | -3.6
A43U C85G A95C U112C | -2.22
A43U G57U C86A | -2.97
A43U G61A C73A C88A G93A A121U | -2.52
A43G C49G C98U G120C | -3.88
A43U C49G G135U | -3.89
A43G A50G C101G C124A U129A | -3.82
A43G A46U U55G | -2.46
G42U C94U G113A | -2.64
A43U G93A A119C G120A | -2.58
A43U C70G G117A | -6.87

Variant | polymerase ribozyme fitness (log ratio)
A43C G60U U78C C104A G120C | -5.55
A43U U112G | -1.93
A43U U112A | -0.216
A43C C85A C104U G113A | -2.96
G42U C70G | -4.95
G42U C72A U96C | -1.5
G42U G58C U87C | -0.174
A43U G45A G58C G69U | 0.218
G44A | -0.794
A43U U59A A66U | -4.54
A43U C102U | -3.44
G42U G52A C101U | -1.81
A43C G69A C94G | -7.62
G42U U78A | -2.36
A43U C82G A119G C123U C124A | -0.662
A43G G63A | -3.39
A43U U55A C70G U112A G113A | -3.91
A43U G47U G61A C72G C97U | -2.63
A43U U54A A66U U112A | -3.74
G42U U78A U81A U112A | -3.13
A43C G58A U78A C114A | -5.29
A43C C88U G93A | -1.96
A43U A46G C53G U87C C115U | -2.37
A43U G48C G57A C89U U106C | -2.94

Variant | polymerase ribozyme fitness (log ratio)
A43C C56G C62G A68G G120A | -7.42
G42U C82U | -1.44
G42U C82A | -1.61
G42U C56U G127U | -2.75
G42U G77U U92A U106A | -2.9
A43U C56G U67A G69U G71C A75G C101A G107C C124G | -7.81
G42U C76U A84U C88U | -2.62
A43C C72A | -2.05
A43C G47A C56U G57A C62U A103C | -6.45
G42U G120A | -1.14
A43G A121G U129A | -0.572
A43U U81A C85G | -3.37
G42U C73A C114G | -1.95
G42U G71C | -3.19
A43G A46U U112G | -3.43
A43C G69U C99U | -3.77
A43C C56A | -2.98
A43G C101U A108G | -2.96
A43U C72A | -1.26
A43G A50C G57U | -2.8
A43G G110C | -2.35
G42U C88U G113U A121U U131G | -1.8
G42U C73A U125A | -1.74
